Reference: article PMC6051341

Experiments:
[1] = target: ΔM-N L-selectin–GFP (human) (UniProt P14151); assay: FRET or BRET; FLIM measurement of FRET; THP-1 cells perfused over TNF-activated HUVECs, fixed in 4% PFA at 25 min (late TEM); optical section above the endothelium (top, non-transmigrated uropods)
[2] = target: ΔM-N L-selectin–GFP (human) (UniProt P14151); assay: FRET or BRET; FLIM measurement of FRET; THP-1 cells perfused over TNF-activated HUVECs, fixed in 4% PFA at 25 min (late TEM); optical section below the endothelium (base, transmigrated pseudopods)
[3] = target: ΔM-N L-selectin–GFP (human) (UniProt P14151); assay: FRET or BRET; FLIM measurement of FRET; THP-1 cells perfused over TNF-activated HUVECs, fixed in 4% PFA at 6 min (early TEM); optical section above the endothelium (top, non-transmigrated uropods)
[4] = target: ΔM-N L-selectin–GFP (human) (UniProt P14151); assay: FRET or BRET; FLIM measurement of FRET; THP-1 cells perfused over TNF-activated HUVECs, fixed in 4% PFA at 6 min (early TEM); optical section below the endothelium (base, transmigrated pseudopods)
[5] = target: ΔM-N L-selectin–GFP (human) (UniProt P14151); assay: FRET or BRET; FLIM measurement of FRET between GFP (donor, on L-selectin) and RFP (on the ERM protein); unchallenged THP-1 cells seeded onto poly-L-lysine-coated coverslips for 10 min at 37°C, fixed

UniProt P14151, sequence (P14151 39-372, stated change not applied): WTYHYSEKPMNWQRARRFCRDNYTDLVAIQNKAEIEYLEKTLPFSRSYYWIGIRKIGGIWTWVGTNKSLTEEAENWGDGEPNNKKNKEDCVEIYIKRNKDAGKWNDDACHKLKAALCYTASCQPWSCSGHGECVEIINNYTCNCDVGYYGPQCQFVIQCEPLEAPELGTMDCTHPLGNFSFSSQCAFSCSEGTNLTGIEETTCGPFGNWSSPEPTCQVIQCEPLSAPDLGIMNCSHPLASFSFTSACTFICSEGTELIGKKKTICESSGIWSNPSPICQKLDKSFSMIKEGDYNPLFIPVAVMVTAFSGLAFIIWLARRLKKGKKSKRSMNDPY

Substance | FRET efficiency (uropods, 25 min) [1] [%] | FRET efficiency (pseudopods, 25 min) [2] [%] | FRET efficiency (uropods, 6 min) [3] [%] | FRET efficiency (pseudopods, 6 min) [4] [%] | fold FRET efficiency against moesin with the same L-selectin (unchallenged cells) [5] [fold]
ezrin–RFP (from UniProt P15311 1-586) (natural protein) | 7 | 6.5 | 6.5 | 7.1 | 3.2
moesin–RFP (from UniProt P26041 1-577) (natural protein) | 2 | 4.2 | 2.7 | 2.4 | 
